{"source": "paper PMC3383732", "about": "“Impact of Large Aggregated Uricases and PEG Diol on Accelerated Blood Clearance of PEGylated Canine Uricase” (PLoS ONE, 2012)", "proteins": {"B1": {"name": "recombinant canine uricase (enzyme, UniProt Q5FZI9 1-304, looked up)", "chain": "MAHYHNDYKKNDEVEFVRTGYGKDMVKVLHIQRDGKYHSIKEVATSVQLTLSSKKDYVYGDNSDIIPTDTIKNTVHVLAKFKGIKSIETFAMNICEHFLSSFNHVIRAQVYVEEVPWKRFEKNGVKHVHAFIHNPTGTHFCEVEQMRSGPPVIHSGIKDLKVLKTTQSGFEGFIKDQFTTLPEVKDRCFATKVYCKWRYHQGRDVDFEATWDTVRDIVLEKFAGPYDKGEYSPSVQKTLYDIQVHSLSRVPEMEDMEISLPNIHYFNIDMSKMGLINKEEVLLPLDNPYGRITGTAKRKLASKL", "notes": "Active form is a homo-tetramer; octamers and larger aggregates of the same chain were also seen and separated on Source 15Q; No tag is mentioned; Unmodified (not PEGylated) protein in the SE-HPLC analysis; also called rCU; wDU"}}, "target": "the molecule itself", "assay": "SEC; SE-HPLC on Superdex 200 10/300 GL, 0.1 M Na2CO3 pH 10.3, 0.4 ml/min, detection at 280 nm; purified rCU after xanthine affinity chromatography and Source 15Q fractions", "note": "Where “and” joins values, the source holds several entries; their conditions need not be identical. Equal entries are not always repeated."}
{"protein": "B1", "values": [{"measurement": "stoichiometry N", "value": "4 and 8"}]}
